This note sets out measurements from publication PMC12881670, “Investigation into ligand selectivity and bias at the formyl peptide receptor family” (The Journal of Pharmacology and Experimental Therapeutics, 2025).

Where no end group is shown, it is not given here. The star is where a group is joined. For = O=C*

Assay in all cases: cell-based or functional assay
The target of assay [1] is T1, FLAG-Mm_Fpr1 C-terminally fused to Renilla Luciferase 8 (mouse, UniProt P33766 1-364).
T1 sequence (looked up): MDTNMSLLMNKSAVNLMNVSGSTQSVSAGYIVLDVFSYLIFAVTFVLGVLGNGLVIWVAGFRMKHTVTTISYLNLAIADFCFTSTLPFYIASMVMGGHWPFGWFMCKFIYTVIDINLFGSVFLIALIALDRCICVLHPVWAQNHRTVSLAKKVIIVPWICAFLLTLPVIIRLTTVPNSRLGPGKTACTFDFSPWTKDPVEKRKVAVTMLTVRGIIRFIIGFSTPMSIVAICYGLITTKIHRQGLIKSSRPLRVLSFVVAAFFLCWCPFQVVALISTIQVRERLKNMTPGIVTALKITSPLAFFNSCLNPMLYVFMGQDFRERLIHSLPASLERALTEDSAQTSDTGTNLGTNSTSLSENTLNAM

The target in assay [2] is T2, FLAG-Hs_FPR1 C-terminally fused to Renilla Luciferase 8 (human, UniProt P21462 1-350).
T2 sequence (looked up): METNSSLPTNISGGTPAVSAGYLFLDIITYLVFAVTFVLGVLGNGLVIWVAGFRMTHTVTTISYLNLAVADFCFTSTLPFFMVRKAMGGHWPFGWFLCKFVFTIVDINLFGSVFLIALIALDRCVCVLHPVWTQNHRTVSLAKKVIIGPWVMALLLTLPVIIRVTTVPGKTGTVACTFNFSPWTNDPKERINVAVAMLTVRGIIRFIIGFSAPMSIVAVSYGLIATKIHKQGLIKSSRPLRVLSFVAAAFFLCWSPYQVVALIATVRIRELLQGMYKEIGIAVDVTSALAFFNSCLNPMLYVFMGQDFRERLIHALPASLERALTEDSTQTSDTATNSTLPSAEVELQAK

The target in assay [3] is T3, FLAG-Hs_FPR2 C-terminally fused to Renilla Luciferase 8 (human, UniProt P25090 1-351).
T3 sequence (looked up): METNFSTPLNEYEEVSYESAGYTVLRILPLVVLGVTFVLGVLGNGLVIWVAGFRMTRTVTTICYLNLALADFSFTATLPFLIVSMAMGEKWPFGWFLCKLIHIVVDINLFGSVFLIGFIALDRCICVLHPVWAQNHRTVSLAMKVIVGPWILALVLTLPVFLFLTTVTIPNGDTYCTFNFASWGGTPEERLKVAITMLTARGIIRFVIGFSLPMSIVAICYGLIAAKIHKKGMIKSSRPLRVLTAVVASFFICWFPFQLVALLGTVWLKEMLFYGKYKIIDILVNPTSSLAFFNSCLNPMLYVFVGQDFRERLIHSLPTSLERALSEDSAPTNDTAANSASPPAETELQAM

For assay [4], the target named is T4, FLAG-Mm_Fpr2 C-terminally fused to Renilla Luciferase 8 (mouse, UniProt O88536 1-351).
T4 sequence (looked up): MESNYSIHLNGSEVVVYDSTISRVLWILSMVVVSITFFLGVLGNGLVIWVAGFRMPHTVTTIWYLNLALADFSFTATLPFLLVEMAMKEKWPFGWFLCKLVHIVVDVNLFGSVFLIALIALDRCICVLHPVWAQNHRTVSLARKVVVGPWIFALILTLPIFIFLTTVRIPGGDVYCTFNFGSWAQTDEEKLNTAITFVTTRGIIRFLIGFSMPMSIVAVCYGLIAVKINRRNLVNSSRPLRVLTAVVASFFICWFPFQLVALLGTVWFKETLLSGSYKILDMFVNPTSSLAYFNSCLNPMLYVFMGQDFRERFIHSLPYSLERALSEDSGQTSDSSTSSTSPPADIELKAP

Assay [5] concerns the target T1, FLAG-Mm_Fpr1 C-terminally fused to …. The source holds these as a separate data set.
In assay [6] the target is T2, FLAG-Hs_FPR1 C-terminally fused to …. The source holds these as a separate data set.
In assay [7] the target is T4, FLAG-Mm_Fpr2 C-terminally fused to …. This is another data set of the same source.

B1: fMet-Leu-Phe (fMLF) (peptide)
peptide: For-Met-Leu-Phe
Turning to B1, the “BRET of receptor-RLuc8 with Venus-mGsi: Emax (% of 1 μM WKYMVm)” value in assay [1] was determined as 59.3%; in assay [2] it was 115%; in assay [3] it was 61.7%; in assay [4], 13.2%. Also, the “BRET of receptor-RLuc8 with Venus-mGsi: Log EC50 (M)” value is -4.93 log M in assay [1], -6.47 log M in assay [2], -4.05 log M in assay [3] and -4.58 log M in assay [4]. For the same molecule, the “BRET of receptor-RLuc8 with Arrestin 3-YFP: Emax (% of 1 μM WKYMVm)” value was determined as 83.4% in assay [5], 97% in assay [6] and 22.7% in assay [7]. Moreover, the “BRET of receptor-RLuc8 with Arrestin 3-YFP: Log EC50 (M)” value in assay [5] was -4.68 log M; in assay [6] it was -7.08 log M; in assay [7], -4.71 log M.
